In paper doi:10.1101/2024.04.26.591406:
“And” between values parts separate entries of the source, which are not always exact repeats. Equal values may be shown once.

Biological target: Vibrio His-FliFG fusion protein (FliF-FliG fusion) with the FliG-G214S mutation (Vibrio alginolyticus)
Experiment: cryo-EM structure

“Vibrio His-FliFG fusion protein (FliF-FliG fusion) with the FliG-G214S mutation” was tested, and the stoichiometry N was 35 subunits and 34 subunits.
